# In paper PMC9482650, “Quantitative fragmentomics allow affinity mapping of interactomes” (Nature Communications, 2022):
# T1: SNTG2, Q9NY99
# T1 sequence (Q9NY99 68-166, limits assumed, looked up): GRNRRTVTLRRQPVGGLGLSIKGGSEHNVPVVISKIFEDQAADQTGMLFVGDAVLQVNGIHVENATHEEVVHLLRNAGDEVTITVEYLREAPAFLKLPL
# T2: LIN7C, Q9NUP9
# T2 sequence (Q9NUP9 88-185, limits assumed, looked up): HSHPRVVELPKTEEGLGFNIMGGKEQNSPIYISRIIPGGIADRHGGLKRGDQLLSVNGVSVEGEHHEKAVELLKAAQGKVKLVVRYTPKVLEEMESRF
# T3: TJP3_3, O95049
# T3 sequence (O95049 375-456, limits assumed, looked up): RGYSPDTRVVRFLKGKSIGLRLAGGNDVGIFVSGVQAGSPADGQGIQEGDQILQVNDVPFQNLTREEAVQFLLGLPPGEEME
# T4: GRIP1_7, Q9Y3R0
# T4 sequence (Q9Y3R0 999-1096, limits assumed, looked up): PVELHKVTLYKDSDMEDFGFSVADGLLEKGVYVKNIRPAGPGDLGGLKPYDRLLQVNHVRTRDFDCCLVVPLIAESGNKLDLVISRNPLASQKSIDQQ
# T5: LIN7B, Q9HAP6
# T5 sequence (Q9HAP6 88-185, limits assumed, looked up): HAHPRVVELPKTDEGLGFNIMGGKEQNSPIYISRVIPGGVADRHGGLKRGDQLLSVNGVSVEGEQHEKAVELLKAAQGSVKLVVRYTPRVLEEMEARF
# T6: APBA1_1, Q02410
# T6 sequence (Q02410 651-752, limits assumed, looked up): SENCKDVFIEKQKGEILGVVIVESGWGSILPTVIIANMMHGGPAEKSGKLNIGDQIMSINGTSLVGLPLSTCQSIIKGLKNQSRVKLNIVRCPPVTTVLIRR
# T7: DLG3_3, Q92796
# T7 sequence (Q92796 374-475, limits assumed, looked up): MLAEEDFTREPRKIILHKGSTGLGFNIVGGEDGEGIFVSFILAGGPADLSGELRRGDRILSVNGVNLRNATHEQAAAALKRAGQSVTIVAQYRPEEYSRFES
# T8: GRIP1_2, Q9Y3R0
# T8 sequence (Q9Y3R0 145-248, limits assumed, looked up): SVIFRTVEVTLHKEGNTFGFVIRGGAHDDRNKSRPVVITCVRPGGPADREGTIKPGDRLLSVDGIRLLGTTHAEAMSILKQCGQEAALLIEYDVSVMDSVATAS
# Tests used:
# Experiment in all cases: holdup assay
# Set-up in all cases: key: below the threshold = too weak to quantify, mostly under pKd 3.1 to 4
# PTPN3, P26045 = molecular target: PTPN3, P26045
# PTPN3, P26045, sequence (P26045 505-587): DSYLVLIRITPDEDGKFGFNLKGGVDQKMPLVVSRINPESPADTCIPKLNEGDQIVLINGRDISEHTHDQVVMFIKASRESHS
# NHERF4_1, Q86UT5-2 = molecular target: NHERF4_1, Q86UT5-2
# NHERF4_1, Q86UT5-2, sequence (Q86UT5 other isoform, or with tags, fused parts or gaps): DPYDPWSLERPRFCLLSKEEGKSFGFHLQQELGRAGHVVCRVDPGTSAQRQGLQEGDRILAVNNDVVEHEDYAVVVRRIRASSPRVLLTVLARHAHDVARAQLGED
# MAGI2_3, Q86UL8 = molecular target: MAGI2_3, Q86UL8
# MAGI2_3, Q86UL8, sequence (Q86UL8 600-682): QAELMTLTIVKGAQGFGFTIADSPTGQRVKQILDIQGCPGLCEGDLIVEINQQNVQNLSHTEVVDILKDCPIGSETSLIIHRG
# SCRIB_3, Q14160 = molecular target: SCRIB_3, Q14160
# SCRIB_3, Q14160, sequence (Q14160 999-1103): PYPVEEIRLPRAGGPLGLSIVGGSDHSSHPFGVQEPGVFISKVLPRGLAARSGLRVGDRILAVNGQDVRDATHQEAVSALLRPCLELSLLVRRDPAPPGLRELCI
# PDLIM1, O00151 = molecular target: PDLIM1, O00151
# PDLIM1, O00151, sequence (O00151 1-87): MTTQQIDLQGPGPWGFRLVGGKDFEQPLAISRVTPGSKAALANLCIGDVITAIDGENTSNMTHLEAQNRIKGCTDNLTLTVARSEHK
# SNTG2, Q9NY99 = molecular target: T1, SNTG2, Q9NY99
# MAGI2_5, Q86UL8 = molecular target: MAGI2_5, Q86UL8
# MAGI2_5, Q86UL8, sequence (Q86UL8 915-1017): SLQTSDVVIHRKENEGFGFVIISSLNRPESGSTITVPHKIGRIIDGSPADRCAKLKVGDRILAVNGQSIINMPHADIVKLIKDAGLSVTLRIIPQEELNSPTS
# HTRA2, O43464 = molecular target: HTRA2, O43464
# HTRA2, O43464, sequence (O43464 355-458): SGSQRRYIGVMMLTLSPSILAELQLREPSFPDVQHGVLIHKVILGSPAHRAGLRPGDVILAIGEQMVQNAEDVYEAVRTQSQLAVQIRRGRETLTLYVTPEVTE
# LNX1_1, Q8TBB1 = molecular target: LNX1_1, Q8TBB1
# LNX1_1, Q8TBB1, sequence (Q8TBB1 261-371): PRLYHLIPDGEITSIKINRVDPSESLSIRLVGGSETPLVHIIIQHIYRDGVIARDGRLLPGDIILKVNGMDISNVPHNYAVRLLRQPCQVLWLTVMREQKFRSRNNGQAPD
# ARHGEF12, Q9NZN5-2 = molecular target: ARHGEF12, Q9NZN5-2
# ARHGEF12, Q9NZN5-2, sequence (Q9NZN5 other isoform, or with tags, fused parts or gaps): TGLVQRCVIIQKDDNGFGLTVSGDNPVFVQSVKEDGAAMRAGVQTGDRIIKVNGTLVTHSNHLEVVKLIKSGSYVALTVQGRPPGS
# LIN7C, Q9NUP9 = molecular target: T2, LIN7C, Q9NUP9
# Inadl_1, Q8NI35 = molecular target: Inadl_1, Q8NI35
# Inadl_1, Q8NI35, sequence (Q8NI35 113-229): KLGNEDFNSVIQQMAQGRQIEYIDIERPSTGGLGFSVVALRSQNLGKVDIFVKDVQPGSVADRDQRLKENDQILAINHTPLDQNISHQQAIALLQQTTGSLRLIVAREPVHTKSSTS
# GORASP1, Q9BQQ3 = molecular target: GORASP1, Q9BQQ3
# GORASP1, Q9BQQ3, sequence (Q9BQQ3 1-208): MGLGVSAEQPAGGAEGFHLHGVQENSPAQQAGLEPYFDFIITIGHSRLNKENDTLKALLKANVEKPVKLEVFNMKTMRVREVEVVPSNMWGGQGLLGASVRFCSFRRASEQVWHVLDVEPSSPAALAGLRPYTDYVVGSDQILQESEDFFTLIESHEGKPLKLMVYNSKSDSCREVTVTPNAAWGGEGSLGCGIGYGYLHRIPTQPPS
# NHERF2_2, Q15599 = molecular target: NHERF2_2, Q15599
# NHERF2_2, Q15599, sequence (Q15599 142-238): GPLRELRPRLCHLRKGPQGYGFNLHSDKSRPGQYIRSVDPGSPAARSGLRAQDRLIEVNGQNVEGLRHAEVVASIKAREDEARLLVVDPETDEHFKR
# SNX27, Q96L92 = molecular target: SNX27, Q96L92
# MAST1, Q9Y2H9 = molecular target: MAST1, Q9Y2H9
# MAST1, Q9Y2H9, sequence (Q9Y2H9 962-1065): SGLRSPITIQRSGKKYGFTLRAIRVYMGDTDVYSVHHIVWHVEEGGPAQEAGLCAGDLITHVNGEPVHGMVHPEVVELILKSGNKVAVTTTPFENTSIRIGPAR
# PARD3_3, Q8TEW0 = molecular target: PARD3_3, Q8TEW0
# PARD3_3, Q8TEW0, sequence (Q8TEW0 582-685): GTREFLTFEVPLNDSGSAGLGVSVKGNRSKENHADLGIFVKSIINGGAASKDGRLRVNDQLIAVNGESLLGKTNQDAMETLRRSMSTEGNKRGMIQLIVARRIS
# TJP1_2, Q07157 = molecular target: TJP1_2, Q07157
# TJP1_2, Q07157, sequence (Q07157 181-274): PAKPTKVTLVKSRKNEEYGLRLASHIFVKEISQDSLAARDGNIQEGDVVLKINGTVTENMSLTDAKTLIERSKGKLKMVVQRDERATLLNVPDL
# TJP3_3, O95049 = molecular target: T3, TJP3_3, O95049
# SCRIB_2, Q14160 = molecular target: SCRIB_2, Q14160
# SCRIB_2, Q14160, sequence (Q14160 857-960): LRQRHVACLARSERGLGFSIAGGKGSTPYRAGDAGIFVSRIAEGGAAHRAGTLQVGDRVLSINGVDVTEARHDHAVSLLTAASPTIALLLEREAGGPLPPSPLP
# GRIP1_7, Q9Y3R0 = molecular target: T4, GRIP1_7, Q9Y3R0
# LIN7B, Q9HAP6 = molecular target: T5, LIN7B, Q9HAP6
# APBA1_1, Q02410 = molecular target: T6, APBA1_1, Q02410
# AHNAK1, Q09666 = molecular target: AHNAK1, Q09666
# AHNAK1, Q09666, sequence (Q09666 4-100): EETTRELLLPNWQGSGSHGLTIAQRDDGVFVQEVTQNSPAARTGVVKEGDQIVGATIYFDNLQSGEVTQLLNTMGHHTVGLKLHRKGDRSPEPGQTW
# SCRIB_1, Q14160 = molecular target: SCRIB_1, Q14160
# SCRIB_1, Q14160, sequence (Q14160 718-814): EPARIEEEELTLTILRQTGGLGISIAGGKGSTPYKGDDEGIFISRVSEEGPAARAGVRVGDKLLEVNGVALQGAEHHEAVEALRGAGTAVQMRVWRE
# CASK, O14936 = molecular target: CASK, O14936
# CASK, O14936, sequence (O14936 487-570): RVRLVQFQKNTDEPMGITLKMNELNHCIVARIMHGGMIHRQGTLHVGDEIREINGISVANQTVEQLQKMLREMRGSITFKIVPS
# MAGI3_2, Q5TCQ9 = molecular target: MAGI3_2, Q5TCQ9
# MAGI3_2, Q5TCQ9, sequence (Q5TCQ9 398-503): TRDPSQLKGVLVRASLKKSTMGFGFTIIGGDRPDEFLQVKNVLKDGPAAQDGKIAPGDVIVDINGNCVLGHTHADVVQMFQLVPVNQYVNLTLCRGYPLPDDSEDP
# Inadl_8, Q8NI35 = molecular target: Inadl_8, Q8NI35
# Inadl_8, Q8NI35, sequence (Q8NI35 1425-1530): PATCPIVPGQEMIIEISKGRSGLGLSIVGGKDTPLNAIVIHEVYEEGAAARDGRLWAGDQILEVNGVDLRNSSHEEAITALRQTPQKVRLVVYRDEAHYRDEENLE
# MAST2, Q6P0Q8 = molecular target: MAST2, Q6P0Q8
# MAST2, Q6P0Q8, sequence (Q6P0Q8 1099-1202): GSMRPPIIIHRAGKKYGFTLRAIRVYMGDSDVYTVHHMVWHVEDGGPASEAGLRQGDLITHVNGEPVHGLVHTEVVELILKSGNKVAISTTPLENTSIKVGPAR
# DLG3_3, Q92796 = molecular target: T7, DLG3_3, Q92796
# GRIP1_2, Q9Y3R0 = molecular target: T8, GRIP1_2, Q9Y3R0
# [1] = plain residues with an end cap or a label only (N-terminal biotin on a linker: ahx)
# [2] = plain residues with an end cap or a label only (N-terminal biotin on a linker: ttds)
binder,measurement,setting,value
"GIFPTLTSPL [SHROOM3, Q8TF72]",pKd,"PTPN3, P26045; [1]",3.99
same,pKd,"NHERF4_1, Q86UT5-2; [1]",4.15
same,pKd,"MAGI2_3, Q86UL8; [1]",below the threshold
same,pKd,"SCRIB_3, Q14160; [1]",below the threshold
same,pKd,"PDLIM1, O00151; [1]",3.61
same,pKd,"SNTG2, Q9NY99; [1]",below the threshold
same,pKd,"MAGI2_5, Q86UL8; [1]",below the threshold
same,pKd,"HTRA2, O43464; [1]",below the threshold
same,pKd,"LNX1_1, Q8TBB1; [1]",below the threshold
same,pKd,"ARHGEF12, Q9NZN5-2; [1]",4.26
same,pKd,"LIN7C, Q9NUP9; [1]",below the threshold
same,pKd,"Inadl_1, Q8NI35; [1]",below the threshold
same,pKd,"GORASP1, Q9BQQ3; [1]",below the threshold
same,pKd,"NHERF2_2, Q15599; [1]",3.66
same,pKd,"SNX27, Q96L92; [1]",3.91
same,pKd,"MAST1, Q9Y2H9; [1]",3.5
same,pKd,"PARD3_3, Q8TEW0; [1]",below the threshold
same,pKd,"TJP1_2, Q07157; [1]",below the threshold
same,pKd,"TJP3_3, O95049; [1]",below the threshold
same,pKd,"SCRIB_2, Q14160; [1]",below the threshold
same,pKd,"GRIP1_7, Q9Y3R0; [1]",below the threshold
same,pKd,"LIN7B, Q9HAP6; [1]",below the threshold
same,pKd,"APBA1_1, Q02410; [1]",below the threshold
same,pKd,"AHNAK1, Q09666; [1]",below the threshold
same,pKd,"SCRIB_1, Q14160; [1]",below the threshold
same,pKd,"CASK, O14936; [1]",below the threshold
same,pKd,"MAGI3_2, Q5TCQ9; [1]",below the threshold
same,pKd,"Inadl_8, Q8NI35; [1]",below the threshold
same,pKd,"MAST2, Q6P0Q8; [1]",4.25
same,pKd,"DLG3_3, Q92796; [1]",below the threshold
"TEEEVQDTRL [CFTR, P13569]",pKd,"PTPN3, P26045; [2]",4.21
same,pKd,"NHERF4_1, Q86UT5-2; [2]",below the threshold
same,pKd,"MAGI2_3, Q86UL8; [2]",below the threshold
same,pKd,"SCRIB_3, Q14160; [2]",below the threshold
same,pKd,"PDLIM1, O00151; [2]",below the threshold
same,pKd,"SNTG2, Q9NY99; [2]",4.37
same,pKd,"MAGI2_5, Q86UL8; [2]",below the threshold
same,pKd,"HTRA2, O43464; [2]",below the threshold
same,pKd,"LNX1_1, Q8TBB1; [2]",below the threshold
same,pKd,"ARHGEF12, Q9NZN5-2; [2]",3.52
same,pKd,"LIN7C, Q9NUP9; [2]",below the threshold
same,pKd,"Inadl_1, Q8NI35; [2]",below the threshold
same,pKd,"GORASP1, Q9BQQ3; [2]",below the threshold
same,pKd,"SNX27, Q96L92; [2]",5.56
same,pKd,"MAST1, Q9Y2H9; [2]",4.77
same,pKd,"PARD3_3, Q8TEW0; [2]",3.89
same,pKd,"TJP1_2, Q07157; [2]",below the threshold
same,pKd,"GRIP1_2, Q9Y3R0; [2]",below the threshold
same,pKd,"TJP3_3, O95049; [2]",below the threshold
same,pKd,"SCRIB_2, Q14160; [2]",below the threshold
same,pKd,"GRIP1_7, Q9Y3R0; [2]",3.74
same,pKd,"LIN7B, Q9HAP6; [2]",below the threshold
same,pKd,"APBA1_1, Q02410; [2]",below the threshold
same,pKd,"AHNAK1, Q09666; [2]",below the threshold
same,pKd,"SCRIB_1, Q14160; [2]",5.42
same,pKd,"CASK, O14936; [2]",below the threshold
same,pKd,"MAGI3_2, Q5TCQ9; [2]",below the threshold
same,pKd,"Inadl_8, Q8NI35; [2]",below the threshold
same,pKd,"MAST2, Q6P0Q8; [2]",5.93
same,pKd,"DLG3_3, Q92796; [2]",below the threshold
"LCKSHAFSHV [PDLIM7, Q9NR12;Q9NR12-1]",pKd,"PTPN3, P26045; [1]",below the threshold
same,pKd,"NHERF4_1, Q86UT5-2; [1]",below the threshold
same,pKd,"MAGI2_3, Q86UL8; [1]",below the threshold
same,pKd,"SCRIB_3, Q14160; [1]",below the threshold
same,pKd,"PDLIM1, O00151; [1]",below the threshold
same,pKd,"SNTG2, Q9NY99; [1]",below the threshold
same,pKd,"HTRA2, O43464; [1]",below the threshold
same,pKd,"LIN7C, Q9NUP9; [1]",below the threshold
same,pKd,"Inadl_1, Q8NI35; [1]",below the threshold
same,pKd,"GORASP1, Q9BQQ3; [1]",below the threshold
same,pKd,"NHERF2_2, Q15599; [1]",below the threshold
same,pKd,"SNX27, Q96L92; [1]",below the threshold
same,pKd,"PARD3_3, Q8TEW0; [1]",below the threshold
same,pKd,"TJP1_2, Q07157; [1]",below the threshold
same,pKd,"GRIP1_2, Q9Y3R0; [1]",below the threshold
same,pKd,"TJP3_3, O95049; [1]",below the threshold
same,pKd,"SCRIB_2, Q14160; [1]",below the threshold
same,pKd,"GRIP1_7, Q9Y3R0; [1]",below the threshold
same,pKd,"LIN7B, Q9HAP6; [1]",below the threshold
same,pKd,"APBA1_1, Q02410; [1]",below the threshold
same,pKd,"AHNAK1, Q09666; [1]",below the threshold
same,pKd,"SCRIB_1, Q14160; [1]",below the threshold
same,pKd,"CASK, O14936; [1]",below the threshold
same,pKd,"MAGI3_2, Q5TCQ9; [1]",4.3
same,pKd,"Inadl_8, Q8NI35; [1]",4.1
same,pKd,"MAST2, Q6P0Q8; [1]",4.21
same,pKd,"DLG3_3, Q92796; [1]",below the threshold
"DEDQHTQITKV [PTEN, P60484]",pKd,"PTPN3, P26045; [2]",3.94
same,pKd,"NHERF4_1, Q86UT5-2; [2]",3.51
same,pKd,"MAGI2_3, Q86UL8; [2]",4.64
same,pKd,"SCRIB_3, Q14160; [2]",3.94
same,pKd,"PDLIM1, O00151; [2]",below the threshold
same,pKd,"SNTG2, Q9NY99; [2]",4.03
same,pKd,"MAGI2_5, Q86UL8; [2]",4.15
same,pKd,"HTRA2, O43464; [2]",below the threshold
same,pKd,"LNX1_1, Q8TBB1; [2]",below the threshold
same,pKd,"ARHGEF12, Q9NZN5-2; [2]",4.2
same,pKd,"LIN7C, Q9NUP9; [2]",below the threshold
same,pKd,"Inadl_1, Q8NI35; [2]",3.77
same,pKd,"GORASP1, Q9BQQ3; [2]",3.88
same,pKd,"NHERF2_2, Q15599; [2]",4.29
same,pKd,"SNX27, Q96L92; [2]",4.89
same,pKd,"MAST1, Q9Y2H9; [2]",4.79
same,pKd,"PARD3_3, Q8TEW0; [2]",3.55
same,pKd,"TJP1_2, Q07157; [2]",below the threshold
same,pKd,"TJP3_3, O95049; [2]",below the threshold
same,pKd,"SCRIB_2, Q14160; [2]",3.73
same,pKd,"GRIP1_7, Q9Y3R0; [2]",below the threshold
same,pKd,"LIN7B, Q9HAP6; [2]",3.49
same,pKd,"APBA1_1, Q02410; [2]",below the threshold
same,pKd,"AHNAK1, Q09666; [2]",below the threshold
same,pKd,"SCRIB_1, Q14160; [2]",4.83
same,pKd,"CASK, O14936; [2]",3.47
same,pKd,"MAGI3_2, Q5TCQ9; [2]",4.03
same,pKd,"Inadl_8, Q8NI35; [2]",4.46
same,pKd,"MAST2, Q6P0Q8; [2]",5.24
same,pKd,"DLG3_3, Q92796; [2]",3.71
